Kd, koff and kon data for 1 molecule are collected here from patent publication US20090252741A1.

This experiment has as its target human CTLA-4Ig fusion protein (extracellular domain of human CTLA-4 and the Fc fragment of human IgG1) (human) (UniProt P16410). In words: Biacore SPR, huCTLA-4Ig immobilized by amine coupling, mAb injected, 25 C.
UniProt P16410, sequence (P16410 36-161): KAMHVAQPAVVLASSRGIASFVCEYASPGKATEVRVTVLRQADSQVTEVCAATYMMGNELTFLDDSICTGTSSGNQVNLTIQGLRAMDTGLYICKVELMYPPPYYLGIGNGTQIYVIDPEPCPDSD

B1: anti-human CTLA-4 mAb clone L3D10 (antibody, from another filing, V domains shown)
VH: QVQLKESGPGLVAPSQSLSITCTVSGFSLTSYGLSWVRQPPGKGLEWLGVIWYDGNTNFHSALISRLTISKDNSKSQVFLELNSLQTDDTATYYCAKTEGHYYGSNYGYYALDYWGQGTSVTVSS
VL: DIQMTQSPASLSVSVGETVTITCRASENIYSNLAWYQQKQGKSPQLLVYAATNLADGVPSRFSGSGSGTQYSLKINSLQSEDFGTYFCQHLWGTPYTFGGGTKLEIKR
B1 displayed a Kd of 3.06 nM, an off-rate constant (koff) of 0.000633 s⁻¹ and a kon of 207000 M⁻¹ s⁻¹.

Broadly, the Kd is the equilibrium constant for the complex coming apart. For orientation: koff means a measure of how fast the partners let go of each other. A lower koff goes with slow dissociation. A word on the kon: it is a measure of how fast the partners come together.
